Experimental data: patent US6512097

biological target: T1, c-erbB-2 ECD with a Ser-Gly-His6 C-terminal fusion (UniProt P04626 23-652); experiment: SPR BIAcore
T1 construct: extracellular domain; Expressed from CHO cells, IMAC purified; coupled to a CM5 chip, coated on plates, or biotinylated with NHS-LC-biotin; also called c-erbB-2 extracellular domain; biotinylated c-erbB-2 ECD
Description: All assays were performed in triplicate. Briefly, […] of radioiodinated sFv was added to 5×10^6 SK-OV cells in the presence of increasing concentrations of unlabeled sFv from the same preparation. After a 30 minute incubation at 20° C., the samples were washed with PBS at 4° C. and centrifuged at 500 g. The amount of labeled sFv bound to the cells was determined by counting the pellets in a gamma counter and the K_a, and K_d were calculated using the EBDA program (V 2.0, G. A. McPherson, 1983). The K_d of all the other isolated sFv were determined using surface plasmon resonance in a BIAcore (Pharmacia). In a BIAcore flow cell, approximately 1400 resonance units (RU) of c-erbB-2 ECD (25 μg/ml in 10 mM sodium acetate, pH 4.5) was coupled to a CM5 sensor chip (Johnsson et al. (1991), supra). Association and dissociation-rates were measured under continuous flow of […] using a concentration range from 50 to 800 nM. Rate constant $kon$ was determined from a plot of (1(dR/dt))/t vs concentration (Karlsson et al. (1991), supra). Rate constant $Hoff$ was determined from the dissociation part of the sensorgram at the highest concentration of sFv analyzed.
Dashes indicate sequence identity. Mutations arising from PCR error and located outside V_H CDR3 are listed under the heading other mutations. F = frequency of isolated scFv. *$koff$ determined from unpurified scFv samples. Underline indicates mutated residue.

Binder | Kd | koff
C6MH3-B16 (scFv, C6ML3-9 sFv, VH CDR3 library B mutant) scFv: QVQLLQSGAELKKPGESLKISCKGSGYSFTSYWIAWVRQMPGKGLEYMGLIYPGDSDTKYSPSFQGQVTISVDKSVSTAYLQWSSLKPSDSAVYFCARHDVGYCADVRCAKWPEYFQHWGQGTLVTVSSGGGGSGGGGSGGGGSQSVLTQPPSVSAAPGQKVTISCSGSSSNIGNNYVSWYQQLPGTAPKLLIYGHTNRPAGVPDRFSGSKSGTSASLAISGFRSEDEADYYCASWDYTLSGWVFGGGTKLTVLG | 0.31 nM | 0.00028 s⁻¹
C6MH3-D6 (scFv, C6ML3-9 sFv, VH CDR3 library D mutant) scFv: QVQLLQSGAELKKPGESLKISCKGSGYSFTSYWIAWVRQMPGKGLEYMGLIYPGDSDTKYSPSFQGQVTISVDKSVSTAYLQWSSLKPSDSAVYFCARHDVGYCSSSNCAKWPEWMYPWGQGTLVTVSSGGGGSGGGGSGGGGSQSVLTQPPSVSAAPGQKVTISCSGSSSNIGNNYVSWYQQLPGTAPKLLIYGHTNRPAGVPDRFSGSKSGTSASLAISGFRSEDEADYYCASWDYTLSGWVFGGGTKLTVLG | 0.35 nM | 0.00018 s⁻¹
C6MH3-B21 (scFv, C6ML3-9 sFv, VH CDR3 library B mutant) scFv: QVQLLQSGAELKKPGESLKISCKGSGYSFTSYWIAWVRQMPGKGLEYMGLIYPGDSDTKYSPSFQGQVTISVDKSVSTAYLQWSSLKPSDSAVYFCARHDVGYCTTPLCAKWPEYFQHWGQGTLVTVSSGGGGSGGGGSGGGGSQSVLTQPPSVSAAPGQKVTISCSGSSSNIGNNYVSWYQQLPGTAPKLLIYGHTNRPAGVPDRFSGSKSGTSASLAISGFRSEDEADYYCASWDYTLSGWVFGGGTKLTVLG | 0.73 nM | 0.00024 s⁻¹
C6ML3-A3 (scFv) scFv: QVQLLQSGAELKKPGESLKISCKGSGYSFTSYWIAWVRQMPGKGLEYMGLIYPGDSDTKYSPSFQGQVTISVDKSVSTAYLQWSSLKPSDSAVYFCARHDVGYCSSSDCAKWPEYFQHWGQGTLVTVSSGGGGSGGGGSGGGGSQSVLTQPPSVSAAPGQKVTISCSGSSSNIGNNYVSWYQQLPGTAPKLLIYGHTNRPAGVPDRFSGSKSGTSASLAISGFRSEDEADYYCASWDYTLSGWVFGGGTKLTVLG | 16 nM | 0.0063 s⁻¹
C6MH3-D3 (scFv, C6ML3-9 sFv, VH CDR3 library D mutant) scFv: QVQLLQSGAELKKPGESLKISCKGSGYSFTSYWIAWVRQMPGKGLEYMGLIYPGDSDTKYSPSFQGQVTISVDKSVSTAYLQWSSLKPSDSAVYFCARHDVGYCSSSNCAKWPEWLDNWGQGTLVTVSSGGGGSGGGGSGGGGSQSVLTQPPSVSAAPGQKVTISCSGSSSNIGNNYVSWYQQLPGTAPKLLIYGHTNRPAGVPDRFSGSKSGTSASLAISGFRSEDEADYYCASWDYTLSGWVFGGGTKLTVLG | 0.27 nM | 0.00025 s⁻¹
C6MH3-D5 (scFv, C6ML3-9 sFv, VH CDR3 library D mutant) scFv: QVQLLQSGAELKKPGESLKISCKGSGYSFTSYWIAWVRQMPGKGLEYMGLIYPGDSDTKYSPSFQGQVTISVDKSVSTAYLQWSSLKPSDSAVYFCARHDVGYCSSSNCAKWPEWMQMWGQGTLVTVSSGGGGSGGGGSGGGGSQSVLTQPPSVSAAPGQKVTISCSGSSSNIGNNYVSWYQQLPGTAPKLLIYGHTNRPAGVPDRFSGSKSGTSASLAISGFRSEDEADYYCASWDYTLSGWVFGGGTKLTVLG | 0.38 nM | 0.00021 s⁻¹
C6MH3-B27 (scFv, C6ML3-9 sFv, VH CDR3 library B mutant) scFv: QVQLLQSGAELKKPGESLKISCKGSGYSFTSYWIAWVRQMPGKGLEYMGLIYPGDSDTKYSPSFQGQVTISVDKSVSTAYLQWSSLKPSDSAVYFCARHDVGYCKNSRCAKWPEYFQHWGQGTLVTVSSGGGGSGGGGSGGGGSQSVLTQPPSVSAAPGQKVTISCSGSSSNIGNNYVSWYQQLPGTAPKLLIYGHTNRPAGVPDRFSGSKSGTSASLAISGFRSEDEADYYCASWDYTLSGWVFGGGTKLTVLG | 0.47 nM | 0.0004 s⁻¹
C6MH3-B20 (scFv, C6ML3-9 sFv, VH CDR3 library B mutant) scFv: QVQLLQSGAELKKPGESLKISCKGSGYSFTSYWIAWVRQMPGKGLEYMGLIYPGDSDTKYSPSFQGQVTISVDKSVSTAYLQWSSLKPSDSAVYFCARHDVGYCSPARCAKWPEYFQHWGQGTLVTVSSGGGGSGGGGSGGGGSQSVLTQPPSVSAAPGQKVTISCSGSSSNIGNNYVSWYQQLPGTAPKLLIYGHTNRPAGVPDRFSGSKSGTSASLAISGFRSEDEADYYCASWDYTLSGWVFGGGTKLTVLG | 0.87 nM | 0.00016 s⁻¹
C6MH3-B48 (scFv, C6ML3-9 sFv, VH CDR3 library B mutant) scFv: QVQLLQSGAELKKPGESLKISCKGSGYSFTSYWIAWVRQMPGKGLEYMGLIYPGDSDTKYSPSFQGQVTISVDKSVSTAYLQWSSLKPSDSAVYFCARHDVGYCTDPSCAKWPEYFQHWGQGTLVTVSSGGGGSGGGGSGGGGSQSVLTQPPSVSAAPGQKVTISCSGSSSNIGNNYVSWYQQLPGTAPKLLIYGHTNRPAGVPDRFSGSKSGTSASLAISGFRSEDEADYYCASWDYTLSGWVFGGGTKLTVLG | 0.23 nM | 0.00013 s⁻¹
C6MH3-D1 (scFv, C6ML3-9 sFv, VH CDR3 library D mutant) scFv: QVQLLQSGAELKKPGESLKISCKGSGYSFTSYWIAWVRQMPGKGLEYMGLIYPGDSDTKYSPSFQGQVTISVDKSVSTAYLQWSSLKPSDSAVYFCARHDVGYCSSSNCAKWPEWLHVWGQGTLVTVSSGGGGSGGGGSGGGGSQSVLTQPPSVSAAPGQKVTISCSGSSSNIGNNYVSWYQQLPGTAPKLLIYGHTNRPAGVPDRFSGSKSGTSASLAISGFRSEDEADYYCASWDYTLSGWVFGGGTKLTVLG | 0.31 nM | 0.00011 s⁻¹
C6MH3-B41 (scFv, C6ML3-9 sFv, VH CDR3 library B mutant) scFv: QVQLLQSGAELKKPGESLKISCKGSGYSFTSYWIAWVRQMPGKGLEYMGLIYPGDSDTKYSPSFQGQVTISVDKSVSTAYLQWSSLKPSDSAVYFCARHDVGYCTDRPCAKWPEYFQHWGQGTLVTVSSGGGGSGGGGSGGGGSQSVLTQPPSVSAAPGQKVTISCSGSSSNIGNNYVSWYQQLPGTAPKLLIYGHTNRPAGVPDRFSGSKSGTSASLAISGFRSEDEADYYCASWDYTLSGWVFGGGTKLTVLG | 0.53 nM | 0.00027 s⁻¹
C6MH3-B39 (scFv, C6ML3-9 sFv, VH CDR3 library B mutant) scFv: QVQLLQSGAELKKPGESLKISCKGSGYSFTSYWIAWVRQMPGKGLEYMGLIYPGDSDTKYSPSFQGQVTISVDKSVSTAYLQWSSLKPSDSAVYFCARHDVGYCTDPTCAKWPEYFQHWGQGTLVTVSSGGGGSGGGGSGGGGSQSVLTQPPSVSAAPGQKVTISCSGSSSNIGNNYVSWYQQLPGTAPKLLIYGHTNRPAGVPDRFSGSKSGTSASLAISGFRSEDEADYYCASWDYTLSGWVFGGGTKLTVLG | 0.32 nM | 0.00019 s⁻¹
C6MH3-B25 (scFv, C6ML3-9 sFv, VH CDR3 library B mutant) scFv: QVQLLQSGAELKKPGESLKISCKGSGYSFTSYWIAWVRQMPGKGLEYMGLIYPGDSDTKYSPSFQGQVTISVDKSVSTAYLQWSSLKPSDSAVYFCARHDVGYCLTTRCAKWPEYFQHWGQGTLVTVSSGGGGSGGGGSGGGGSQSVLTQPPSVSAAPGQKVTISCSGSSSNIGNNYVSWYQQLPGTAPKLLIYGHTNRPAGVPDRFSGSKSGTSASLAISGFRSEDEADYYCASWDYTLSGWVFGGGTKLTVLG | 0.36 nM | 0.00019 s⁻¹
C6MH3-C3 (scFv) scFv: QVQLLQSGAELKKPEESLKISCKGSGYSFTSYWIAWVRQMPGKGLEYMGLIYPGDSDTKYSPSFQGQVTISVDKSVSTAYLQWSSLKPSDSAVYFCARHDVGYCSSSNCAKWPEYFQHWGQGTLVTVSSGGGGSGGGGSGGGGSQSVLTQPPSVSAAPGQKVTISCSGSSSNIGNNYVSWYQQLPGTAPKLLIYGHTDRPAGVPDRFSGSKSGTSASLAISGFRSEDEADYYCASWDYTLSGWVFGGGTKLTVLG | 0.65 nM | 0.00032 s⁻¹

biological target: T1, c-erbB-2 ECD with a Ser-Gly-His6 …; experiment: SPR BIAcore; remark: another data set of the same source

Binder | Kd | koff
C6ML3-16 (scFv) scFv: QVQLLQSGAELKKPGESLKISCKGSGYSFTSYWIAWVRQMPGKGLEYMGLIYPGDSDTKYSPSFQGQVTISVDKSVSTAYLQWSSLKPSDSAVYFCARHDVGYCSSSNCAKWPEYFQHWGQGTLVTVSSGGGGSGGGGSGGGGSQSVLTQPPSVSAAPGQKVTISCSGSSSNIGNNYVSWYQQLPGTAPKLLIYGHTNRPAGVPDRFSGSKSGTSASLAISGFRSEDEADYYCASWDYYRSGWVFGGGTKLTVLG | 5 nM | 0.0017 s⁻¹
C6ML3-18 (scFv) scFv: QVQLLQSGAELKKPGESLKISCKGSGYSFTSYWIAWVRQMPGKGLEYMGLIYPGDSDTKYSPSFQGQVTISVDKSVSTAYLQWSSLKPSDSAVYFCARHDVGYCSSSNCAKWPEYFQHWGQGTLVTVSSGGGGSGGGGSGGGGSQSVLTQPPSVSAAPGQKVTISCSGSSSNIGNNYVSWYQQLPGTAPKLLIYGHTNRPAGVPDRFSGSKSGTSASLAISGFRSEDEADYYCASWDASLWGWVFGGGTKLTVLG | 2.4 nM | 0.00062 s⁻¹
C6ML3-17 (scFv) scFv: QVQLLQSGAELKKPGESLKISCKGSGYSFTSYWIAWVRQMPGKGLEYMGLIYPGDSDTKYSPSFQGQVTISVDKSVSTAYLQWSSLKPSDSAVYFCARHDVGYCSSSNCAKWPEYFQHWGQGTLVTVSSGGGGSGGGGSGGGGSQSVLTQPPSVSAAPGQKVTISCSGSSSNIGNNYVSWYQQLPGTAPKLLIYGHTNRPAGVPDRFSGSKSGTSASLAISGFRSEDEADYYCASWDYYRSGWVFGGGTKLTVLG | 5 nM | 0.0017 s⁻¹
